# Source: US20250320281A1
# Legend:
# [1] = target: HIV-1 envelope glycoprotein (Env) of isolate MGRM-Chronic-B-004 (HIV-1); assay: cell-based or functional assay
# [2] = target: HIV-1 envelope glycoprotein (Env) of isolate MGRM-Chronic-B-002 (HIV-1); assay: cell-based or functional assay
# [3] = target: HIV-1 envelope glycoprotein (Env) of isolate CAAN.A2 (HIV-1); assay: cell-based or functional assay
# [4] = target: HIV-1 Env of isolate 94UG103 (subtype A) (HIV-1); assay: cell-based or functional assay
# [5] = target: HIV-1 Env of isolate 92RW008 (subtype A) (HIV-1); assay: cell-based or functional assay
# [6] = target: HIV-1 envelope glycoprotein (Env) of isolate MGRM-Chronic-B-001 (HIV-1); assay: cell-based or functional assay
# [7] = target: HIV-1 MGRM-AG-005 envelope glycoprotein (Env) on pseudovirus (HIV-1); assay: cell-based or functional assay
# [8] = target: HIV-1 Env of isolate JR-FL (subtype B pseudovirus) (HIV-1); assay: cell-based or functional assay
# [9] = target: HIV-1 MGRM-D-018 envelope glycoprotein (Env) on pseudovirus (HIV-1); assay: cell-based or functional assay
# [10] = target: HIV-1 Env of isolate MGRM-Chronic-B-010 (HIV-1); assay: cell-based or functional assay
# [11] = target: HIV-1 Env of pseudovirus MGRM-A-005 (subtype A) (HIV-1); assay: cell-based or functional assay
# [12] = target: HIV-1 Env of isolate MGRM-C-028 (clade C pseudovirus) (HIV-1); assay: cell-based or functional assay
# [13] = target: HIV-1 Env of isolate MG RM-D-008 (clade D), on pseudovirus (HIV-1); assay: cell-based or functional assay
# [14] = target: HIV-1 Env of isolate MG RM-D-002 (clade D), on pseudovirus (HIV-1); assay: cell-based or functional assay
# [15] = target: HIV-1 Env of pseudovirus MGRM-A-007 (subtype A) (HIV-1); assay: cell-based or functional assay
# [16] = target: HIV-1 Env of pseudovirus 92WR009 (subtype A) (HIV-1); assay: cell-based or functional assay
# [17] = target: HIV-1 Env of isolate MG RM-D-005 (clade D), on pseudovirus (HIV-1); assay: cell-based or functional assay
# [18] = target: HIV-1 Env of pseudovirus 92WR020 (subtype A) (HIV-1); assay: cell-based or functional assay
# [19] = target: HIV-1 Env of isolate 92UG046 (clade D), on pseudovirus (HIV-1); assay: cell-based or functional assay
# [20] = target: HIV-1 Env of isolate MGRM-F1-013 (clade F), on pseudovirus (HIV-1); assay: cell-based or functional assay
# [21] = target: HIV-1 Env of isolate MG RM-D-003 (clade D), on pseudovirus (HIV-1); assay: cell-based or functional assay
# [22] = target: HIV-1 Env of isolate CAAN.A2 (HIV-1); assay: cell-based or functional assay
# [23] = target: HIV-1 Env of isolate MGRM-Chronic-B-002 (HIV-1); assay: cell-based or functional assay
# [24] = target: HIV-1 ADA Env (HIV-1 ADA); assay: cell-based or functional assay
# [25] = target: HIV-1 Env of isolate MGRM-F1-016 (clade F), on pseudovirus (HIV-1); assay: cell-based or functional assay
# [26] = target: HIV-1 IAVI_C22 Env on pseudotyped virus (HIV-1 isolate IAVI_C22); assay: cell-based or functional assay
# [27] = target: HIV-1 Env of isolate MG RM-D-020 (clade D), on pseudovirus (HIV-1); assay: cell-based or functional assay
# [28] = target: HIV-1 Env of isolate MG RM-D-012 (clade D), on pseudovirus (HIV-1); assay: cell-based or functional assay
# [29] = target: HIV-1 Env of isolate MG RM-D-011 (clade D), on pseudovirus (HIV-1); assay: cell-based or functional assay
# [30] = target: HIV-1 Env of isolate MG RM-D-028 (clade D), on pseudovirus (HIV-1); assay: cell-based or functional assay
# [31] = target: HIV-1 Env of isolate MGRM-F1-012 (clade F), on pseudovirus (HIV-1); assay: cell-based or functional assay
# [32] = target: HIV-1 Env of isolate MGRM-F1-010 (clade F), on pseudovirus (HIV-1); assay: cell-based or functional assay
# [33] = target: HIV-1 Env of isolate MG RM-D-013 (clade D), on pseudovirus (HIV-1); assay: cell-based or functional assay
# [34] = target: HIV-1 Env of pseudovirus 93WR029 (subtype A) (HIV-1); assay: cell-based or functional assay
# [35] = target: HIV-1 Env of isolate 92UG114 (clade D), on pseudovirus (HIV-1); assay: cell-based or functional assay
# [36] = target: HIV-1 Env of isolate MGRM-F1-004 (clade F), on pseudovirus (HIV-1); assay: cell-based or functional assay
# [37] = target: HIV-1 Env of isolate MGRM-F1-006 (clade F), on pseudovirus (HIV-1); assay: cell-based or functional assay
# [38] = target: HIV-1 Env of isolate MG RM-D-026 (clade D), on pseudovirus (HIV-1); assay: cell-based or functional assay
# [39] = target: HIV-1 Env of isolate MGRM-C-027 (clade C pseudovirus) (HIV-1); assay: cell-based or functional assay
# [40] = target: aMLV envelope on pseudotyped virus (negative control) (aMLV); assay: cell-based or functional assay
# [41] = target: HIV-1 92BR020 Env on pseudotyped virus (HIV-1 isolate 92BR020); assay: cell-based or functional assay
# [42] = target: JR-FL gp120 ΔV3 (HIV-1); assay: ELISA, antigen-coated wells
# Sequence of 4970_K22 (PGT-144) (antibody) (VH): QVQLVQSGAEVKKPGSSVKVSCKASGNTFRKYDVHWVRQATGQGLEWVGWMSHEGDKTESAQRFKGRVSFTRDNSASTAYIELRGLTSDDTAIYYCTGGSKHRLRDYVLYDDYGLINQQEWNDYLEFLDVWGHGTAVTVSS
# Sequence of 4970_K22 (PGT-144) (antibody) (VL): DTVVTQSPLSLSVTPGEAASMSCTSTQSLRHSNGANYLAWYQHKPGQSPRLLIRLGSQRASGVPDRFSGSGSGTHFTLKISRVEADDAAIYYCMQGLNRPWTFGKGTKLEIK
# Sequence of 4995_E20 (PGT-142) (antibody) (VH): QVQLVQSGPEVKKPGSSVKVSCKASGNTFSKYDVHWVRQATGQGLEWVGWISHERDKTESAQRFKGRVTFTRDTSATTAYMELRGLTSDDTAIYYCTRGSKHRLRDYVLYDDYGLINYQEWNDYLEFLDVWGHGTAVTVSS
# Sequence of 4995_E20 (PGT-142) (antibody) (VL): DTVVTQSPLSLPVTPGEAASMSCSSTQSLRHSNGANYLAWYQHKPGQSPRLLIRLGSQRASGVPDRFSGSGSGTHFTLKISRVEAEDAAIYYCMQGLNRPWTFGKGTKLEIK
# Sequence of 1443_C16 (PG16) (TCN-116) (antibody) (VH): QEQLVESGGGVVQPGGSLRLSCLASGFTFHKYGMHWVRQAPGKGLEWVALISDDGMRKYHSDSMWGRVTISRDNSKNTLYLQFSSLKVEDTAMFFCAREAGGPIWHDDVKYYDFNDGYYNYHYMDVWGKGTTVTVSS
# Sequence of 1443_C16 (PG16) (TCN-116) (antibody) (VL): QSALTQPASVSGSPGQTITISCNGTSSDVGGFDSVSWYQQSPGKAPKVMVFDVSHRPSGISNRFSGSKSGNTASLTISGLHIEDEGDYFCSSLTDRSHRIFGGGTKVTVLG
# Sequence of 4993_K13 (PGT-141) (antibody) (VH): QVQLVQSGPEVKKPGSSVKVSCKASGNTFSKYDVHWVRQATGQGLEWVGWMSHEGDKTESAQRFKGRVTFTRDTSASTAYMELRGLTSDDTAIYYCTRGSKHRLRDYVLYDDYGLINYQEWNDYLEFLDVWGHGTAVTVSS
substance,measurement,setting,value
4970_K22 (PGT-144) (antibody),"IC50 (µg/mL), pseudovirus neutralization",[1],9.41 µg/mL
same,"IC50 (µg/mL), pseudovirus neutralization",[2],> 50 µg/mL
same,"IC50 (µg/mL), pseudovirus neutralization",[3],> 50 µg/mL
same,"IC50 (µg/mL), pseudovirus neutralization",[4],> 50 µg/mL
same,"IC50 (µg/mL), pseudovirus neutralization",[5],> 50 µg/mL
same,"IC50 (µg/mL), pseudovirus neutralization",[6],> 50 µg/mL
4995_E20 (PGT-142) (antibody),"IC50 (µg/mL), pseudovirus neutralization",[1],0.172 µg/mL
same,"IC50 (µg/mL), pseudovirus neutralization",[2],> 50 µg/mL
same,"IC50 (µg/mL), pseudovirus neutralization",[3],> 50 µg/mL
same,"IC50 (µg/mL), pseudovirus neutralization",[4],> 50 µg/mL
same,"IC50 (µg/mL), pseudovirus neutralization",[5],0.447 µg/mL
same,"IC50 (µg/mL), pseudovirus neutralization",[6],> 50 µg/mL
5141_B17 (PGT-126) (antibody),"IC50, pseudovirus neutralization",[7],1.35 µg/mL
same,IC80 (pseudovirus neutralization),[7],> 10 µg/mL
same,IC90 (pseudovirus neutralization),[7],> 10 µg/mL
same,IC95 (pseudovirus neutralization),[7],> 10 µg/mL
same,"IC50 (µg/mL), pseudovirus neutralization",[8],0.014 µg/mL
same,"IC50, pseudovirus neutralization",[9],0.0093 µg/mL
same,IC80 (pseudovirus neutralization),[9],0.0391 µg/mL
same,IC90 (pseudovirus neutralization),[9],0.0918 µg/mL
same,IC95 (pseudovirus neutralization),[9],0.205 µg/mL
1496_C09 (PG9) (TCN-109) (antibody),"IC50 (µg/mL), pseudovirus neutralization",[10],0.004 µg/mL
same,"IC50, pseudovirus neutralization",[11],0.75 µg/mL
same,"IC50 (µg/mL), pseudovirus neutralization",[12],0.067 µg/mL
same,"IC50 (µg/mL), pseudovirus neutralization",[13],11.5 µg/mL
same,"IC50 (µg/mL), pseudovirus neutralization",[14],0.021 µg/mL
same,"IC50, pseudovirus neutralization",[15],1.06 µg/mL
same,"IC50, pseudovirus neutralization",[16],0.05 µg/mL
same,"IC50 (µg/mL), pseudovirus neutralization",[17],1.8 µg/mL
same,"IC50, pseudovirus neutralization",[18],0.141 µg/mL
same,"IC50 (µg/mL), pseudovirus neutralization",[19],1.86 µg/mL
same,"IC50 (µg/mL), pseudovirus neutralization",[20],1.25 µg/mL
same,"IC50 (µg/mL), pseudovirus neutralization",[21],0.033 µg/mL
same,"IC50 (µg/mL), pseudovirus neutralization",[22],19.3 µg/mL
same,"IC50 (µg/mL), pseudovirus neutralization",[23],3.44 µg/mL
same,"IC50 (ug/ml), pseudovirus neutralization, TZM-bl assay",[24],0.2 µg/mL
same,"IC50 (µg/mL), pseudovirus neutralization",[25],0.518 µg/mL
same,Neutralizing Antibody Assay: IC50; Virus/Ab Incubation 1 hour,[26],24.9 µg/mL
same,Neutralizing Antibody Assay: IC50; Virus/Ab Incubation 18 hour,[26],2.11 µg/mL
same,"IC50 (µg/mL), pseudovirus neutralization",[27],1.67 µg/mL
same,"IC50 (µg/mL), pseudovirus neutralization",[28],16.2 µg/mL
same,"IC50 (µg/mL), pseudovirus neutralization",[29],0.071 µg/mL
same,"IC50 (µg/mL), pseudovirus neutralization",[30],20.2 µg/mL
same,"IC50 (µg/mL), pseudovirus neutralization",[31],0.023 µg/mL
same,"IC50 (µg/mL), pseudovirus neutralization",[32],0.012 µg/mL
same,"IC50 (µg/mL), pseudovirus neutralization",[33],0.021 µg/mL
same,"IC50, pseudovirus neutralization",[34],0.69 µg/mL
same,"IC50 (µg/mL), pseudovirus neutralization",[35],40.6 µg/mL
same,"IC50 (µg/mL), pseudovirus neutralization",[36],0.175 µg/mL
same,"IC50 (µg/mL), pseudovirus neutralization",[37],7.25 µg/mL
same,"IC50 (µg/mL), pseudovirus neutralization",[38],23.7 µg/mL
same,"IC50 (µg/mL), pseudovirus neutralization",[39],5.36 µg/mL
VRC01 (antibody),"IC50 (µg/mL), pseudovirus neutralization",[1],0.055 µg/mL
same,"IC50 (µg/mL), pseudovirus neutralization",[2],0.117 µg/mL
same,"IC50 (µg/mL), pseudovirus neutralization",[3],0.722 µg/mL
same,"IC50 (µg/mL), pseudovirus neutralization",[4],0.285 µg/mL
same,"IC50 (µg/mL), pseudovirus neutralization",[5],0.037 µg/mL
same,"IC50 (µg/mL), pseudovirus neutralization",[6],0.066 µg/mL
PGV04 (antibody),"IC50 (µg/mL), pseudovirus neutralization",[10],0.744 µg/mL
same,"IC50, pseudovirus neutralization",[11],0.134 µg/mL
same,"IC50 (µg/mL), pseudovirus neutralization",[12],0.149 µg/mL
same,"IC50 (µg/mL), pseudovirus neutralization",[13],3.56 µg/mL
same,"IC50 (µg/mL), pseudovirus neutralization",[14],0.322 µg/mL
same,"IC50, pseudovirus neutralization",[15],7.21 µg/mL
same,"IC50, pseudovirus neutralization",[16],0.108 µg/mL
same,"IC50 (µg/mL), pseudovirus neutralization",[17],> 50 µg/mL
same,"IC50, pseudovirus neutralization",[18],0.055 µg/mL
same,"IC50 (µg/mL), pseudovirus neutralization",[19],22.4 µg/mL
same,"IC50 (µg/mL), pseudovirus neutralization",[20],0.084 µg/mL
same,"IC50 (µg/mL), pseudovirus neutralization",[21],> 50 µg/mL
same,"IC50 (µg/mL), pseudovirus neutralization",[22],2.26 µg/mL
same,"IC50 (µg/mL), pseudovirus neutralization",[23],0.142 µg/mL
same,"IC50 (µg/mL), pseudovirus neutralization",[25],0.268 µg/mL
same,"IC50 (µg/mL), pseudovirus neutralization",[27],0.097 µg/mL
same,"IC50 (µg/mL), pseudovirus neutralization",[28],0.125 µg/mL
same,"IC50 (µg/mL), pseudovirus neutralization",[29],0.025 µg/mL
same,"IC50 (µg/mL), pseudovirus neutralization",[30],1.01 µg/mL
same,"IC50 (µg/mL), pseudovirus neutralization",[31],0.25 µg/mL
same,"IC50 (µg/mL), pseudovirus neutralization",[32],0.184 µg/mL
same,"IC50 (µg/mL), pseudovirus neutralization",[33],0.088 µg/mL
same,"IC50, pseudovirus neutralization",[34],0.54 µg/mL
same,"IC50 (µg/mL), pseudovirus neutralization",[35],0.461 µg/mL
same,"IC50 (µg/mL), pseudovirus neutralization",[36],0.58 µg/mL
same,"IC50 (µg/mL), pseudovirus neutralization",[37],> 50 µg/mL
same,"IC50 (µg/mL), pseudovirus neutralization",[38],1.76 µg/mL
same,"IC50 (µg/mL), pseudovirus neutralization",[39],2.76 µg/mL
1443_C16 (PG16) (TCN-116) (antibody),"IC50 (ug/ml), pseudovirus neutralization, TZM-bl assay",[24],0.004 µg/mL
same,Neutralizing Antibody Assay: IC50; Virus/Ab Incubation 1 hour,[26],0.114 µg/mL
same,Neutralizing Antibody Assay: IC50; Virus/Ab Incubation 18 hour,[26],0.106 µg/mL
same,Neutralizing Antibody Assay: IC50; Virus/Ab Incubation 1 hour,[40],> 50 µg/mL
same,Neutralizing Antibody Assay: IC50; Virus/Ab Incubation 18 hour,[40],> 50 µg/mL
same,Neutralizing Antibody Assay: IC50; Virus/Ab Incubation 1 hour,[41],> 50 µg/mL
same,Neutralizing Antibody Assay: IC50; Virus/Ab Incubation 18 hour,[41],> 50 µg/mL
5123_A06 (PGT-125) (antibody),"IC50 (µg/mL), pseudovirus neutralization",[8],0.009 µg/mL
5114_A19 (PGT-128) (antibody),EC50,[42],7.8 µg/mL
4993_K13 (PGT-141) (antibody),"IC50 (µg/mL), pseudovirus neutralization",[1],0.586 µg/mL
same,"IC50 (µg/mL), pseudovirus neutralization",[2],> 50 µg/mL
same,"IC50 (µg/mL), pseudovirus neutralization",[3],> 50 µg/mL
same,"IC50 (µg/mL), pseudovirus neutralization",[4],> 50 µg/mL
same,"IC50 (µg/mL), pseudovirus neutralization",[5],0.579 µg/mL
same,"IC50 (µg/mL), pseudovirus neutralization",[6],> 50 µg/mL
